In paper PMC4559334:

Key:
Experiment in all cases: EMSA
Conditions in all cases: not stated in the material held
C-Ala (Escherichia coli) = system: C-Ala (Escherichia coli)
[1] = system: AlaRS full-length (Escherichia coli)
[2] = system: ED-C-Ala (Escherichia coli)

## tRNAAla, 3'-labelled
C-Ala (Escherichia coli)
  Kd: 0.8 µM
[1]
  Kd: 3 µM
[2]
  Kd: 2.2 µM
